Here are results for two molecules from patent US9540620B2, “Methods and compositions for modulating G-alpha-Q signaling” (The University of North Carolina at Chapel Hill, priority 2012, dated 2017).

The subject of test [1] is Gαq downstream of the muscarinic receptor. Put plainly: Muscarinic receptor-dependent activation of PLC-β, [3H]inositol phosphate accumulation in HEK293 cells. Particulars: peptide for 30 minutes (FIG. 9). The test is classed as cell-based. As to the method: FIG. 9. Muscarinic receptor-dependent activation of PLC-β was determined by quantification of [^3H]inositol phosphate accumulation. Where indicated, HEK293 cells were treated with Palm-27-mer peptide for 30 minutes.
Since a major tenet of this invention is to interdict Gαq signaling in cells with peptidomimetics, it will be necessary to efficiently introduce peptides derived from this scaffold into cells. […] Moreover, once introduced, this peptide prevented the stimulation of PLC activity by Gαq downstream of the P2Y6 receptor and/or muscarinic receptor, a G protein-coupled receptor selective for Gαq (FIG. 7C and FIG. 9).
Since a major tenet of this work is to downregulate G-alpha-q signaling in cells with peptidomimetics, peptides derived from this scaffold have been efficiently delivered into cells.

The next test addresses T1, Gαq (Homo sapiens, UniProt P50148).
T1 sequence (P50148 1-359): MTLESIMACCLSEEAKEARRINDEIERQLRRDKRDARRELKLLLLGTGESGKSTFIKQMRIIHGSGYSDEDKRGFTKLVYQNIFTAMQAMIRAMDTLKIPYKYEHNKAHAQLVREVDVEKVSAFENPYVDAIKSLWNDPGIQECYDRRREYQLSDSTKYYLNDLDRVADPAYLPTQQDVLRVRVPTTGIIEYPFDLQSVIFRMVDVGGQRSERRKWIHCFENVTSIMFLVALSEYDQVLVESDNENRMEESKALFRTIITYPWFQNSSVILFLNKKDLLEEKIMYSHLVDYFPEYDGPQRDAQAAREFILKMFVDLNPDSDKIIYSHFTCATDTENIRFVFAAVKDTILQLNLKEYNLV
Briefly: Fluorescence polarization competition: unlabeled PLC-β3 against TAMRA-labeled peptide for Gαq. The test is classed as binding. The settings on record: TAMRA-27-mer 400 nM, Gαq 800 nM. Here is the method:
FIGS. 3A and 3B. TAMRA-27-mer and PLC-β3 directly compete for Gαq. (FIG. 3A) Increasing concentrations of PLC-β3 were added to a solution of TAMRA-27-mer (400 nM) and Gαq (800 nM). The IC50 value is derived from three independent experiments. (FIG. 3B) Phospholipase activity of PLC-β3 activated by Gαq using lipid vesicles and inhibited by increasing concentrations of TAMRA-27-mer.
FIGS. 6A-C. Quantification of Gαq binding to peptides corresponding to the HTH of PLβ3. […] The structures of PLCβ3 (3 OHM) and p63RhoGEF (2RGN) bound to Gαq were superimposed and a single Gαq is shown. Immediately below is shown the sequence alignment of PLCβ3 (SEQ ID NO:37) and p63RhoGEF (SEQ ID NO:41) encompassing the helix-turn-helix. Underlined residues are labeled in the structure. […] (FIG. 6C) Increasing concentrations of unlabeled PLC-β3 were added to a solution of labeled 25-mer (400 nM) and Gαq (4 μM). KD and IC50 values were derived from three independent experiments.
Fluorescence polarization will be used to monitor disruption of complex formation between the 27-mer and active Gαq to identify compounds that directly compete with the complex. It is expected that the majority of these compounds will sit within the canonical effector-binding site of Gαq to prevent the binding of peptide—and by extension, prevent the binding of effectors. However, before using this assay format to identify inhibitors of complex formation it was necessary to insure that peptides corresponding to the HTH of PLC-β3 bound to Gαq. […] These experiments strongly support that peptides corresponding to the HTH of PLC-β3 directly bind to the effector pocket of Gαq and can be used as surrogates of effectors in assays of complex formation with active Gαq.
The most promising peptide consisted of 25 residues (TAMRA-25-mer) spanning the entire HTH and bound to G-alpha-q with appreciable affinity (Kd˜6 microMolar).

Another test deals with T2, activated Gαq (Homo sapiens, UniProt P50148).
T2 sequence (P50148 1-359): T1 sequence (P50148 1-359)
The settings on record: full-length protein; read-out: dissociation constant (KD) for activated Gαq; cited from earlier work.

For the molecule “Palm-PEG-PEG-HQDYAEALANPIKHVSL-Nle-DQRARQLAA (HQDYAEALANPIKHVSLXDQRARQLAA; non-natural residues) [Palm-27-mer, 27-mer HTH peptide with a palmityl lipid linked through PEG linkers]”, the “stimulation of PLC activity by Gαq downstream of the muscarinic receptor” value in test [1] is “prevent the stimulation of PLC activity”.

B1: PLC-β3: full-length phospholipase C beta 3, effector of Gαq, used as unlabeled competitor (protein)
chain: AGAQPGVHALQLEPPTVVETLRRGSKFIKWDEETSSRNLVTLRVDPNGFFLYWTGPNMEVDTLDISSIRDTRTGRYARLPKDPKIREVLGFGGPDARLEEKLMTVVSGPDPVNTVFLNFMAVQDDTAKVWSEELFKLAMNILAQNASRNTFLRKAYTKLKLQVNQDGRIPVKNILKMFSADKKRVETALESCGLKFNRSESIRPDEFSLEIFERFLNKLCLRPDIDKILLEIGAKGKPYLTLEQLMDFINQKQRDPRLNEVLYPPLRPSQARLLIEKYEPNQQFLERDQMSMEGFSRYLGGEENGILPLEALDLSTDMTQPLSAYFINSSHNTYLTAGQLAGTSSVEMYRQALLWGCRCVELDVWKGRPPEEEPFITHGFTMTTEVPLRDVLEAIAETAFKTSPYPVILSFENHVDSAKQQAKMAEYCRSIFGDALLIEPLDKYPLAPGVPLPSPQDLMGRILVKNKKRHRPSAGGPDSAGRKRPLEQSNSALSESSAATEPSSPQLGSPSSDSCPGLSNGEEVGLEKPSLEPQKSLGDEGLNRGPYVLGPADREDEEEDEEEEEQTDPKKPTTDEGTASSEVNATEEMSTLVNYIEPVKFKSFEAARKRNKCFEMSSFVETKAMEQLTKSPMEFVEYNKQQLSRIYPKGTRVDSSNYMPQLFWNVGCQLVALNFQTLDVAMQLNAGVFEYNGRSGYLLKPEFMRRPDKSFDPFTEVIVDGIVANALRVKVISGQFLSDRKVGIYVEVDMFGLPVDTRRKYRTRTSQGNSFNPVWDEEPFDFPKVVLPTLASLRIAAFEEGGKFVGHRILPVSAIRSGYHYVCLRNEANQPLCLPALLIYTEASDYIPDDHQDYAEALINPIKHVSLMDQRARQLAALIGESEAQAGQETCQDTQSQQLGSQPSSNPTPSPLDASPRRPPGPTTSPASTSLSSPGQRDDLIASILSEVAPTPLDELRGHKALVKLRSRQERDLRELRKKHQRKAVTLTRRLLDGLAQAQAEGRCRLRPGALGGAADVEDTKEGEDEAKRYQEFQNRQVQSLLELREAQVDAEAQRRLEHLRQALQRLREVVLDANTTQFKRLKEMNEREKKELQKILDRKRHNSISEAKMRDKHKKEAELTEINRRHITESVNSIRRLEEAQKQRHDRLVAGQQQVLQQLAEEEPKLLAQLAQECQEQRARLPQEIRRSLLGEMPEGLGDGPLVACASNGHAPGSSGHLSGADSESQEENTQL
For B1, the “competition with the 27-mer for binding to Gαq” value with Gαq was “could effectively compete”. In the test with activated Gαq, the Kd (usually the equilibrium constant for the complex coming apart) is 10 to 100 nM.
